Data on two sequences can be found in paper PMC4917244.

In data set [1] the target is T1, Ros1WOPR-His (Ustilago maydis (FB1?)) (UniProt A0A0D1BVT7).
T1 sequence: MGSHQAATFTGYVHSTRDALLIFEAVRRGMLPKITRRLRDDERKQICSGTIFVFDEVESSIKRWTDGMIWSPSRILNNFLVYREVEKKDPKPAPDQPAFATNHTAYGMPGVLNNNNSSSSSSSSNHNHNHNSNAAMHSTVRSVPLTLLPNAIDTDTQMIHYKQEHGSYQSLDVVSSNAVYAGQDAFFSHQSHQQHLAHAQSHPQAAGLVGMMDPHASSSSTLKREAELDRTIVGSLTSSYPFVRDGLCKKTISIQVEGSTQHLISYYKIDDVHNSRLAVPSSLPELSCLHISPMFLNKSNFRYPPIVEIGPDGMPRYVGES
Kind of data set: EMSA. For orientation: A gel shift assay detects complexes by their altered migration in electrophoresis.

Data set [2] addresses T1, Ros1WOPR-His (Ustilago maydis (FB1?)). Kind of data set: competition EMSA.

For the sequence “CGCCAGAGACAAGTACTGTTCCCAATTCGGAGCTTCGCCGTGAACCACGAATTCATGCATTTCCATATTGGCAAAATATTAAAAAATTGAGGGTTTTGGCGTTGGCCTTTTGAGAGTTTATTTTAGATTTAATTAAGTGATTATGAGGATGATTCTTTTTCTTCATCTTCCTGTAACCGTCACCTGCCACGCTTGCCTAGACGCAGCAGTATCCACTCCGTAGGCGTATGCTATTGT (double strand) [WT-probe (ros1 promoter)]”, the binding result in data set [1] is “binds”.
As to “CGCCAGAGACAAGTACTGTTCCCAATTCGGAGCTTCGCCGTGAACCACGAATTCATGCATTTCCATATTGGCAAAATATTAAAAAATTGAGGGTTTTGGCGTTGGCCTTTTGAGAGTTTATTTTAGATTTAATTAAGTGATTATGAGGATGATTCTTTTTCTTCATCTTCCTGTAACCGTCACCTGCCACGCTTGCCTAGACGCAGCAGTATCCACTCCGTAGGCGTATGCTATTGT (double strand) [WT-probe unlabeled competitor]”, the binding entry in data set [2] is “binds”.
